{"source": "patent US20150307603A1", "about": "(MODIQUEST B V, published 2015)", "key": {"[1]": {"molecular_target": "T1, huPAD2-deiminated human recombinant histone 3 (human)", "T1 construct": "also called H3/p2; histone 3/p2", "assay": "ELISA, Ab 0.0032 ug/well", "from_the_text": "(§1) The resulting OD (y-axis) is a measure for antibody binding. H1-recombinant histone 1; H1/p2-huPAD2 recombinant histone 1; H1/p4-huPAD4 recombinant histone 1, and so forth (x-axis)."}, "CFC-1 [2]": {"molecular_target": "T2, CFC-1", "T2 construct": "Positive control for anti-citrulline reactivity; also called cfc1 XG; Cfc1-peptide", "assay": "ELISA, Ab 0.0032 ug/well", "from_the_text": "as §1"}, "[3]": {"molecular_target": "T3, huPAD2-deiminated human recombinant histone 2B (human)", "T3 construct": "also called H2B/p2", "assay": "ELISA, Ab 0.0032 ug/well", "from_the_text": "as §1"}, "[4]": {"molecular_target": "T4, huPAD4-deiminated human recombinant histone 3 (human)", "T4 construct": "also called H3/p4", "assay": "ELISA, Ab 0.0032 ug/well", "from_the_text": "as §1"}, "[5]": {"molecular_target": "T5, human recombinant histone 2B (human)", "T5 construct": "Non-deiminated; also called H2B", "assay": "ELISA, Ab 0.0032 ug/well", "from_the_text": "as §1"}, "[6]": {"molecular_target": "T6, huPAD2-deiminated human recombinant histone 2A (human)", "T6 construct": "also called H2A/p2; histone 2A/p2", "assay": "ELISA, Ab 0.0032 ug/well", "from_the_text": "as §1"}, "[7]": {"molecular_target": "human recombinant histone 4 (human, UniProt P62805 2-103)", "assay": "ELISA, Ab 0.0032 ug/well", "from_the_text": "as §1"}, "[8]": {"molecular_target": "T7, huPAD4-deiminated human recombinant histone 2B (human)", "T7 construct": "also called H2B/p4", "assay": "ELISA, Ab 0.0032 ug/well", "from_the_text": "as §1"}, "[9]": {"molecular_target": "T8, huPAD4-deiminated human recombinant histone 2A (human)", "T8 construct": "also called H2A/p4; histone 2A/p4", "assay": "ELISA, Ab 0.0032 ug/well", "from_the_text": "as §1"}, "CFC-1 [10]": {"molecular_target": "T2, CFC-1", "assay": "ELISA, Ab 0.4 ug/well", "experimental": "(§2) Biotin and citrulline-containing peptides derived from fibrinogen and vimentin were immobilized on NEUTRAVIDIN®-coated 96-well ELISA plates (0.3 μg/well). CFC-1 and CFC-0 were coated at the same concentration and served as positive and negative controls, respectively, for specific anti-citrulline reactivity and as coating controls. Non-coated wells were used to test for aspecific binding of the antibodies. […] Detection of bound anti-citrulline antibodies was performed by incubating the wells with rabbit anti-human HRP (1:2000) for 1 hour at RT followed by incubation with TMB substrate. The resulting OD (y-axis) is a measure for antibody binding.\n(§3) Biotin-labeled and citrulline-containing fibrinogen and vimentin peptides (Table 5) were also tested for reactivity with the therapeutic antibodies. Peptides were coated on 96-well NEUTRAVIDIN®-ELISA plates."}, "msFibβ XG [11]": {"molecular_target": "T9, msFibβ XG (mouse, also: biotin-labelled)", "T9 construct": "also called mouse fibrinogen β peptide", "T9 peptide": "EPTDSLDA[Cit]GHRPVDRR", "assay": "ELISA, Ab 0.4 ug/well", "experimental": "as §2, §3"}, "msFibα XG [12]": {"molecular_target": "T10, msFibα XG (mouse, X at position 8 = citrulline; biotin-labelled)", "T10 peptide": "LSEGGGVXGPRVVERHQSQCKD", "assay": "ELISA, Ab 0.4 ug/well", "experimental": "as §2, §3"}, "msFibα XH [13]": {"molecular_target": "T11, msFibα XH (mouse, X at position 15 = citrulline; biotin-labelled)", "T11 peptide": "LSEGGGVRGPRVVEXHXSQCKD", "assay": "ELISA, Ab 0.4 ug/well", "experimental": "as §2, §3"}, "huFibα XH [14]": {"molecular_target": "T12, huFibα XH (human, X at position 15 = citrulline; biotin-labelled)", "T12 peptide": "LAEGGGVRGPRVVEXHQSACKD", "assay": "ELISA, Ab 0.4 ug/well", "experimental": "as §2, §3"}, "huFibα XG [15]": {"molecular_target": "T13, huFibα XG (human, X at position 8 = citrulline; biotin-labelled)", "T13 peptide": "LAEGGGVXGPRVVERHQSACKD", "assay": "ELISA, Ab 0.4 ug/well", "experimental": "as §2, §3"}, "msVim XS/XL [16]": {"molecular_target": "T14, msVim XS/XL (mouse, also: biotin-labelled)", "T14 construct": "also called mouse vimentin peptide", "T14 peptide": "YVT[Cit]SSAV[Cit]L[Cit]SSVP", "assay": "ELISA, Ab 0.4 ug/well", "experimental": "as §2, §3"}, "CFC-1 [17]": {"molecular_target": "T2, CFC-1", "assay": "ELISA, Ab 10 ug/well", "experimental": "as §2, with “histone 2A” for “fibrinogen and vimentin”"}, "[18]": {"molecular_target": "T15, peptide no. 1 (human histone 2A) (human, also: biotin-labelled)", "T15 construct": "also called peptide 1; AAASGXGKQGGK", "T15 peptide": "AAASG[Cit]GKQGGK", "assay": "ELISA, Ab 10 ug/well", "experimental": "as §2, with “histone 2A” for “fibrinogen and vimentin”"}, "[19]": {"molecular_target": "T16, peptide no. 5 (human histone 2A) (human, also: biotin-labelled)", "T16 construct": "also called peptide 5", "T16 peptide": "VGRVH[Cit]LLRKGN", "assay": "ELISA, Ab 10 ug/well", "experimental": "as §2, with “histone 2A” for “fibrinogen and vimentin”"}, "[20]": {"molecular_target": "T17, peptide no. 7 (human histone 2A) (human, also: biotin-labelled)", "T17 construct": "also called peptide 7", "T17 peptide": "GNYSE[Cit]VGAGAP", "assay": "ELISA, Ab 10 ug/well", "experimental": "as §2, with “histone 2A” for “fibrinogen and vimentin”"}, "[21]": {"molecular_target": "T18, peptide no. 8 (human histone 2A) (human, also: biotin-labelled)", "T18 construct": "also called peptide 8", "T18 peptide": "AGNAA[Cit]DNKKTR", "assay": "ELISA, Ab 10 ug/well", "experimental": "as §2, with “histone 2A” for “fibrinogen and vimentin”"}, "CFC-1 [22]": {"molecular_target": "T2, CFC-1", "assay": "ELISA, Ab 0.000128 ug/well", "experimental": "as §2, §3"}, "msFibβ XG [23]": {"molecular_target": "T9, msFibβ XG", "assay": "ELISA, Ab 0.000128 ug/well", "experimental": "as §2, §3"}, "msFibα XG [24]": {"molecular_target": "T10, msFibα XG", "assay": "ELISA, Ab 0.000128 ug/well", "experimental": "as §2, §3"}, "msFibα XH [25]": {"molecular_target": "T11, msFibα XH", "assay": "ELISA, Ab 0.000128 ug/well", "experimental": "as §2, §3"}, "huFibα XH [26]": {"molecular_target": "T12, huFibα XH", "assay": "ELISA, Ab 0.000128 ug/well", "experimental": "as §2, §3"}, "huFibα XG [27]": {"molecular_target": "T13, huFibα XG", "assay": "ELISA, Ab 0.000128 ug/well", "experimental": "as §2, §3"}, "msVim XS/XL [28]": {"molecular_target": "T14, msVim XS/XL", "assay": "ELISA, Ab 0.000128 ug/well", "experimental": "as §2, §3"}}, "note": "Non-standard residues stand in square brackets, D forms with d. No end group written: not given here. Cit = NC(=O)NCCC[C@H](N)C(=O)O"}
{"binder": "RhmAb2.102 (antibody, human IgG1, lambda, Human IgG1 lambda; also called Rhm2.102) heavy: not shown light: QSVLTQPPSMSAAPGQKVTISCSGSSSNIGNNYVSWYQQVPGTAPKLLIYDDNKRPSGIPGRFSGSKSATSATLGITGLQAGDEADYYCGSWDDNLSVVLFGGGTKLTVLGQPKAAPSVTLFPPSSEELQANKATLVCLISDFYPGAVTVAWKADSSPVKAGVETTTPSKQSNNKYAASSYLSLTPEQWKSHRSYSCQVTHEGSTVEKTVAPTECS", "values": [{"measurement": "OD", "setting": "[1]", "value": 0.08, "unit": "OD450"}, {"measurement": "OD", "setting": "CFC-1 [2]", "value": 0.178, "unit": "OD450"}, {"measurement": "OD", "setting": "[3]", "value": 0.052, "unit": "OD450"}, {"measurement": "OD", "setting": "[4]", "value": 0.065, "unit": "OD450"}, {"measurement": "OD", "setting": "[5]", "value": 0.05, "unit": "OD450"}, {"measurement": "OD", "setting": "[6]", "value": 0.161, "unit": "OD450"}, {"measurement": "OD", "setting": "[7]", "value": 0.06, "unit": "OD450"}, {"measurement": "OD", "setting": "[8]", "value": 0.052, "unit": "OD450"}, {"measurement": "OD", "setting": "[9]", "value": 0.135, "unit": "OD450"}, {"measurement": "OD", "setting": "CFC-1 [10]", "value": 3.79, "unit": "OD450"}, {"measurement": "OD", "setting": "msFibβ XG [11]", "value": 1.67, "unit": "OD450"}, {"measurement": "OD", "setting": "msFibα XG [12]", "value": 0.773, "unit": "OD450"}, {"measurement": "OD", "setting": "msFibα XH [13]", "value": 0.076, "unit": "OD450"}, {"measurement": "OD", "setting": "huFibα XH [14]", "value": 0.09, "unit": "OD450"}, {"measurement": "OD", "setting": "huFibα XG [15]", "value": 0.521, "unit": "OD450"}, {"measurement": "OD", "setting": "msVim XS/XL [16]", "value": 1.45, "unit": "OD450"}, {"measurement": "OD", "setting": "CFC-1 [17]", "value": 3.27, "unit": "OD450"}, {"measurement": "OD", "setting": "[18]", "value": 3.11, "unit": "OD450"}, {"measurement": "OD", "setting": "[19]", "value": 0.239, "unit": "OD450"}, {"measurement": "OD", "setting": "[20]", "value": 0.08, "unit": "OD450"}, {"measurement": "OD", "setting": "[21]", "value": 0.082, "unit": "OD450"}, {"measurement": "OD", "setting": "CFC-1 [22]", "value": 0.288, "unit": "OD450"}, {"measurement": "OD", "setting": "msFibβ XG [23]", "value": 0.118, "unit": "OD450"}, {"measurement": "OD", "setting": "msFibα XG [24]", "value": 0.119, "unit": "OD450"}, {"measurement": "OD", "setting": "msFibα XH [25]", "value": 0.089, "unit": "OD450"}, {"measurement": "OD", "setting": "huFibα XH [26]", "value": 0.12, "unit": "OD450"}, {"measurement": "OD", "setting": "huFibα XG [27]", "value": 0.115, "unit": "OD450"}, {"measurement": "OD", "setting": "msVim XS/XL [28]", "value": 0.133, "unit": "OD450"}]}
